In patent US20210355178A1 (published 2021) one finds Kd data, which are given here for 2 molecules.

The target of the assay is complement factor C3b (UniProt P01024 23-667; P01024 749-1663). Nature of the assay: SPR; steady-state fit.
Sequence of complement factor C3b (P01024 23-667, chain 1 of 2): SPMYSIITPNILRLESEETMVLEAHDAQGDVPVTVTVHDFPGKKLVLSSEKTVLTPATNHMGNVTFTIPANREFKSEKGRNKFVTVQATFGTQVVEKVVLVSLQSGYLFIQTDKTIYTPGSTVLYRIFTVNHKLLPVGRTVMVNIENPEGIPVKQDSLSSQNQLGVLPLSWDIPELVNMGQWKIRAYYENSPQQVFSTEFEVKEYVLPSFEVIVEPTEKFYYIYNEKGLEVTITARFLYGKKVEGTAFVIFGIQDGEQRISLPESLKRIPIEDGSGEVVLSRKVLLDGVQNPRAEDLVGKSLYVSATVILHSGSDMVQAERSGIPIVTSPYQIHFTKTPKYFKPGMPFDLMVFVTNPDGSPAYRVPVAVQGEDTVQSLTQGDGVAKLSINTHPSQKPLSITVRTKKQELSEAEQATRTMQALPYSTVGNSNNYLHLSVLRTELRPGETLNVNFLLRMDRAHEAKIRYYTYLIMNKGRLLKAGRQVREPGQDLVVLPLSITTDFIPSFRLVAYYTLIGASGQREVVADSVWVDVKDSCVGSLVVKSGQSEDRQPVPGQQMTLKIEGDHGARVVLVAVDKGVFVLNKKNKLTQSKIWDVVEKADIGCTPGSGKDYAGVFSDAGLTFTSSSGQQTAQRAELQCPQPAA
Sequence of complement factor C3b (P01024 749-1663, chain 2 of 2): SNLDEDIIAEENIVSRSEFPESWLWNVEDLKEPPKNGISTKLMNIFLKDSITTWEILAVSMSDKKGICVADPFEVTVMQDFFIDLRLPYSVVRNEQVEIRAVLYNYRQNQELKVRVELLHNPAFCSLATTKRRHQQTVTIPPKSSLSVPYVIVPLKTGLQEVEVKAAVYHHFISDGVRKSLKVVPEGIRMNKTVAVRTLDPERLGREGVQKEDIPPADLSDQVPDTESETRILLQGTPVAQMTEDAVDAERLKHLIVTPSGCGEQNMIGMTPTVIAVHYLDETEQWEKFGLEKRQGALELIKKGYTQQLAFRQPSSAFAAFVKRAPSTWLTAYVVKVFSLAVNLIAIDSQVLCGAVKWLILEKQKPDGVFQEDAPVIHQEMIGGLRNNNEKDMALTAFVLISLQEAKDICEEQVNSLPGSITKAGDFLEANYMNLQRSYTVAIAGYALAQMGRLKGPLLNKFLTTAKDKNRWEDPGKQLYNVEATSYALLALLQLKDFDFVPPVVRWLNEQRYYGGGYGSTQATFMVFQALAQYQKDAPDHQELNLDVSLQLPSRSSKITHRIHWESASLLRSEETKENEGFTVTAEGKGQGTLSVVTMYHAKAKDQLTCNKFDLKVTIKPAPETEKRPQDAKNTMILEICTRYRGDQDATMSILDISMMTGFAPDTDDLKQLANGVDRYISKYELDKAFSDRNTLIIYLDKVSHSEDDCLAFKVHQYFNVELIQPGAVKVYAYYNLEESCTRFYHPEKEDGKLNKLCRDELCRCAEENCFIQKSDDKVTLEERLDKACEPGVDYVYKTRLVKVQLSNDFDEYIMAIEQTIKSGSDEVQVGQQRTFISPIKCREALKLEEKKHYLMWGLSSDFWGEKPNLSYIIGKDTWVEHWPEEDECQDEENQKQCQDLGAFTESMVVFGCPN

B1: miniFH (designed binder)
chain: EDCNELPPRRNTEILTGSWSDQTYPEGTQAIYKCRPGYRSLGNIIMVCRKGEWVALNPLRKCQKRPCGHPGDTPFGTFTLTGGNVFEYGVKAVYTCNEGYQLLGEINYRECDTDGWTNDIPICEVVKCLPVTAPENGKIVSSAMEPDREYHFGQAVRFVCNSGYKIEGDEEMHCSDDGFWSKEKPKCVEISCKSPDVINGSPISQKIIYKENERFQYKCNMGYEYSERGDAVCTESGWRPLPSCEEAGGGGGGGGGGGGGKCGPPPPIDNGDITSFPLSVYAPASSVEYQCQNLYQLEGNKRITCRNGQWSEPPKCLHPCVISREIMENYNIALRWTAKQKLYSRTGESVEFVCKRGYRLSSRSHTLRTTCWDGKLEYPTCAKR
For orientation: Kd means the constant that tells how readily two partners part at equilibrium. Low values mean a tighter complex, high ones a looser complex. As to B1, the Kd worked out at 588 nM. This counts as sub-micromolar.

B2: miniFH-Fc (Fc fusion)
chain: EDCNELPPRRNTEILTGSWSDQTYPEGTQAIYKCRPGYRSLGNIIMVCRKGEWVALNPLRKCQKRPCGHPGDTPFGTFTLTGGNVFEYGVKAVYTCNEGYQLLGEINYRECDTDGWTNDIPICEVVKCLPVTAPENGKIVSSAMEPDREYHFGQAVRFVCNSGYKIEGDEEMHCSDDGFWSKEKPKCVEISCKSPDVINGSPISQKIIYKENERFQYKCNMGYEYSERGDAVCTESGWRPLPSCEEAGGGGGGGGGGGGGKCGPPPPIDNGDITSFPLSVYAPASSVEYQCQNLYQLEGNKRITCRNGQWSEPPKCLHPCVISREIMENYNIALRWTAKQKLYSRTGESVEFVCKRGYRLSSRSHTLRTTCWDGKLEYPTCAGPGGGGGPGCPAPELLGGPSVFLFPPKPKDTLMISRTPEVTCVVVDVSHEDPEVKFNWYVDGVEVHNAKTKPREEQYQSTYRVVSVLTVLHQDWLNGKEYKCKVSNKALPAPIEKTISKAKGQPREPQVYTLPPSREEMTKNQVSLTCLVKGFYPSDIAVEWESNGQPENNYKTTPPVLDSDGSFFLYSKLTVDKSRWQQGNVFSCSVMHEALHNHYTQKSLSLSPGGGGGGG
B2 showed a Kd of 300 nM.
